Laboratory results from doi:10.1101/2024.04.26.590571 (bioRxiv, 2024).

Molecular target: the molecule itself
Experiment: cryo-EM structure

B1: L-protein (BchL homodimer), electron donor component of Rhodobacter sphaeroides DPOR (enzyme)
chain: MSPKDLTIPTGADGEGSVQVHLDEADKITGAKVFAVYGKGGIGKSTTSSNLSAAFSILGKRVLQIGCDPKHDSTFTLTGSLVPTVIDVLKDVDFHPEELRPEDFVFEGFNGVMCVEAGGPPAGTGCGGYVVGQTVKLLKQHHLLDDTDVVIFDVLGDVVCGGFAAPLQHADQAVVVTANDFDSIYAMNRIIAAVQAKSKNYKVRLAGCVANRSRATDEVDRFCKETNFRRLAHMPDLDAIRRSRLKKKTLFEMDEDQDVLAARAEYIRLAESLWRGLDPIDPHSLPDRDIFELLGFD
- stoichiometry N: 2
